Values quoted from earlier work as cited in patent US20250312434A1, “LIPOPOLYSACCHARIDE (LPS) DEFICIENT ACINETOBACTER BAUMANNII M[…]” (VAXDYN S.L., priority 2021, published 2025).

Tests used:
P. aeruginosa [1] = conditions: 4 intraperitoneal doses of 50 μg
P. aeruginosa [2] = conditions: 2 intraperitoneal doses of 10 ug
[3] = tested on: P. aeruginosa strain PAO1; conditions: Balb/c female mice, 4 subcutaneous doses of 50ug; intranasal PAO1
P. aeruginosa strain PAK = conditions: Balb/c female mice, 4 subcutaneous doses of 50ug; intranasal PAK

purified OprI: P. aeruginosa outer membrane lipoprotein OprI, purified
LD50 in immunized versus not immunized animals (P. aeruginosa [1]): up to 35 fold

B1: purified OprF: purified OprF from P. aeruginosa PAO1 (protein, UniProt P13794 25-350, looked up)
Outer membrane porin F: QGQNSVEIEAFGKRYFTDSVRNMKNADLYGGSIGYFLTDDVELALSYGEYHDVRGTYETGNKKVHGNLTSLDAIYHFGTPGVGLRPYVSAGLAHQNITNINSDSQGRQQMTMANIGAGLKYYFTENFFAKASLDGQYGLEKRDNGHQGEWMAGLGVGFNFGGSKAAPAPEPVADVCSDSDNDGVCDNVDKCPDTPANVTVDANGCPAVAEVVRVQLDVKFDFDKSKVKENSYADIKNLADFMKQYPSTSTTVEGHTDSVGTDAYNQKLSERRANAVRDVLVNEYGVEGGRVNAVGYGESRPVADNATAEGRAINRRVEAEVEAEAK
protection (P. aeruginosa [2]): up to 67%

B2: rOprF: recombinant full-length OprF from P. aeruginosa expressed in Escherichia coli (protein, UniProt P13794 1-350, looked up)
chain: MKLKNTLGVVIGSLVAASAMNAFAQGQNSVEIEAFGKRYFTDSVRNMKNADLYGGSIGYFLTDDVELALSYGEYHDVRGTYETGNKKVHGNLTSLDAIYHFGTPGVGLRPYVSAGLAHQNITNINSDSQGRQQMTMANIGAGLKYYFTENFFAKASLDGQYGLEKRDNGHQGEWMAGLGVGFNFGGSKAAPAPEPVADVCSDSDNDGVCDNVDKCPDTPANVTVDANGCPAVAEVVRVQLDVKFDFDKSKVKENSYADIKNLADFMKQYPSTSTTVEGHTDSVGTDAYNQKLSERRANAVRDVLVNEYGVEGGRVNAVGYGESRPVADNATAEGRAINRRVEAEVEAEAK
modifications: full-length
notes: recombinant full-length OprF from P. aeruginosa expressed in Escherichia coli
survival at 7 days [3]: 50% | survival at 7 days (P. aeruginosa strain PAK): 60%
